Reference: US7588931B2, “High arachidonic acid producing strains of Yarrowia lipolytica” (E. I. du Pont de Nemours and Company, priority 2004, dated 2009)
Entries after “also recorded” stand apart in the source; their conditions may differ.

B1: TEF: Y. lipolytica translation elongation factor EF1-α promoter, SEQ ID NO:166 (nucleic acid, listed as Yarrowia lipolytica)
DNA: GACCGGGTTGGCGGCGTATTTGTGTCCCAAAAAACAGCCCCAATTGCCCCAATTGACCCCAAATTGACCCAGTAGCGGGCCCAACCCCGGCGAGAGCCCCCTTCACCCCACATATCAAACCTCCCCCGGTTCCCACACTTGCCGTTAAGGGCGTAGGGTACTGCAGTCTGGAATCTACGCTTGTTCAGACTTTGTACTAGTTTCTTTGTCTGGCCATCCGGGTAACCCATGCCGGACGCAAAATAGACTACTGAAAATTTTTTTGCTTTGTGGTTGGGACTTTAGCCAAGGGTATAAAAGACCACCGTCCCCGAATTACCTTTCCTCTTCTTTTCTCTCTCTCCTTGTCAACTCACACCCGAAATCGTTAAGCATTTCCTTCTGAGTATAAGAATCATTCAAAGGATCCACTAGTTCTAGAGCGGCCGCTTAAACC
modifications: misc_feature: Promoter TEF
B2: GPAT: Y. lipolytica glycerol-3-phosphate acyltransferase promoter, SEQ ID NO:164 (nucleic acid, listed as Yarrowia lipolytica)
DNA: CAACTTTTCTTGTCGACCTGAGATACCGAGGTTGCGCAGGGGATCAACTTTTGTGTCTCAGAGGGACCCAAGTGCGTACGGAGAGTACAGTACATACTGTAGCTAACGGTAGCAGGCGAACTACTGGTACATACCTCCCCCGGAATATGTACAGGCATAATGCGTATCTGTGGGACATGTGGTCGTTGCGCCATTATGTAAGCAGCGTGTACTCCTCTGACTGTCCATATGGTTTGCTCCATCTCACCCTCATCGTTTTCATTGTTCACAGGCGGCCACAAAAAAACTGTCTTCTCTCCTTCTCTCTTCGCCTTAGTCTACTCGGACCAGTTTTAGTTTAGCTTGGCGCCACTGGATAAATGAGACCTCAGGCCTTGTGATGAGGAGGTCACTTATGAAGCATGTTAGGAGGTGCTTGTATGGATAGAGAAGCACCCAAAATAATAAGAATAATAATAAAACAGGGGGCGTTGTCATTTCATATCGTGTTTTCACCATCAATACACCTCCAAACAATGCCCTTCATGTGGCCAGCCCCAATATTGTCCTGTAGTTCAACTCTATGCAGCTCGTATCTTATTGAGCAAGTAAAACTCTGTCAGCCGATATTGCCCGACCCGCGACAAGGGTCAACAAGGTGGTGTAAGGCCTTCGCAGAAGTCAAAACTGTGCCAAACAAACATCTAGAGTCTCTTTGGTGTTTCTCGCATATATTTAATCGGCTGTCTTACGTATTTGGCCTCGGTACCGGACTAATTTCGGATCATCCCCAATACGCTTTTTCTTCGCAGCTGTCAACAGTGTCCATGATCTATCCACCTAAATGGGTCATATGAGGCGTATAATTTCGTGGTGCTGATAATAATTCCCATATATTTGACACAAAACTTCCCCCCCTAGACATACATCTCACAATCTCACTTCTTGTGCTTCTGTCACACATCTCCTCCAGCTGACTTCAACTCACACCTCTGCCCCAGTTGGTCTACAGCGGTATAAGGTTTCTCCGCATAGAGGTGCACCACTCCTCCCGATACTTGTTTGTGTGACTTGTGGGTCACGACATATATATCTACACACATTGCGCCACCCTTTGGTTCTTCCAGCACAACAAAAACACGACACGCTAA
modifications: misc_feature: Promoter GPAT
B3: GPM: Y. lipolytica phosphoglycerate mutase promoter, SEQ ID NO:160 (nucleic acid, listed as Yarrowia lipolytica)
DNA: GCCTCTGAATACTTTCAACAAGTTACACCCTTCATTAATTCTCACGTGACACAGATTATTAACGTCTCGTACCAACCACAGATTACGACCCATTCGCAGTCACAGTTCACTAGGGTTTGGGTTGCATCCGTTGAGAGCGGTTTGTTTTTAACCTTCTCCATGTGCTCACTCAGGTTTTGGGTTCAGATCAAATCAAGGCGTGAACCACTTTGTTTGAGGACAAATGTGACACAACCAACCAGTGTCAGGGGCAAGTCCGTGACAAAGGGGAAGATACAATGCAATTACTGACAGTTACAGACTGCCTCGATGCCCTAACCTTGCCCCAAAATAAGACAACTGTCCTCGTTTAAGCGCAACCCTATTCAGCGTCACGTCATAATAGCGTTTGGATAGCACTAGTCTATGAGGAGCGTTTTATGTTGCGGTGAGGGCGATTGGTGCTCATATGGGTTCAATTGAGGTGGCGGAACGAGCTTAGTCTTCAATTGAGGTGCGAGCGACACAATTGGGTGTCACGTGGCCTAATTGACCTCGGGTCGTGGAGTCCCCAGTTATACAGCAACCACGAGGTGCATGGGTAGGAGACGTCACCAGACAATAGGGTTTTTTTTGGACTGGAGAGGGTTGGGCAAAAGCGCTCAACGGGCTGTTTGGGGAGCTGTGGGGGAGGAATTGGCGATATTTGTGAGGTTAACGGCTCCGATTTGCGTGTTTTGTCGCTCCTGCATCTCCCCATACCCATATCTTCCCTCCCCACCTCTTTCCACGATAATTTTACGGATCAGCAATAAGGTTCCTTCTCCTAGTTTCCACGTCCATATATATCTATGCTGCGTCGTCCTTTTCGTGACATCACCAAAACACATACAAAAATG
modifications: misc_feature: Promoter GPM

Assays:
Type in all cases: cell-based, Yarrowia lipolytica
[1] = tested on: β-glucuronidase (GUS) reporter; experiment: Comparative analysis of promoters by fluorometric assay of GUS expression
Description: GUS activity was also assayed by fluorometric determination of the production of 4-methylumbelliferone (4-MU) from the corresponding substrate β-glucuronide (Jefferson, R. A. Plant Mol. Biol. Reporter 5:387-405 (1987)).
Yarrowia lipolytica ATCC #76982 strains containing plasmids pY5-30, PYZGDG, PYZGMG, pDMW212 and pDMW214 were grown from single colonies in 3 mL MM (as described above) at 30° C. to an OD600˜1.0. Then, the 3 mL cultures were each added to a 500 mL flask containing 50 mL MM and grown in a shaking incubator at 30° C. for about 24 hrs. The cells were collected by centrifugation, resuspended in Promega Cell Lysis Buffer and lysed using the BIO 101 Biopulverizer system (Vista, Calif.). After centrifugation, the supernatants were removed and kept on ice.
Similarly, Y. lipolytica strain Y2034 containing plasmids pY5-30, pYAT-GUS, pYGPAT-GUS and pDMW214 constructs, respectively, were grown from single colonies in 10 mL SD medium at 30° C. for 48 hrs to an OD600˜5.0. Two mL of each culture was collected for GUS activity assays, as described below, while 5 mL of each culture was switched into HGM.
Specifically, cells from the 5 mL aliquot were collected by centrifugation, washed once with 5 mL of HGM and resuspended in HGM. The cultures in HGM were then grown in a shaking incubator at 30° C. for 24 hrs. Two mL of each HGM culture were collected for the GUS activity assay, while the remaining culture was allowed to grow for an additional 96 hrs before collecting an additional 2 mL of each culture for the assay.
Each 2 mL culture sample in SD medium was resuspended in 1 mL of 0.5× cell culture lysis reagent (Promega). Resuspended cells were mixed with 0.6 mL of glass beads (0.5 mm diameter) in a 2.0 mL screw cap tube with a rubber O-ring. The cells were then homogenized in a Biospec mini beadbeater (Bartlesville, Okla.) at the highest setting for 90 sec. The homogenization mixtures were centrifuged for 2 min at 14,000 rpm in an Eppendof centrifuge to remove cell debris and beads. The supernatant was used for GUS assay and protein determination.
For each fluorometric assay, 100 μl of extract was added to […] of GUS assay buffer (2 mM 4-methylumbelliferyl-β-D-glucuronide (“MUG”) in extraction buffer) or 200 μl of extract was added to 800 μl of GUS assay buffer. The mixtures were placed at 37° C. Aliquots of 100 μl were taken at 0, 30 and 60 min time points and added to 900 μl of stop buffer (1 M Na2CO3). Each time point was read using a CytoFluor Series 4000 Fluorescence Multi-Well Plate Reader (PerSeptive Biosystems, Framingham, Mass.) set to an excitation wavelength of 360 nm and an emission wavelength of 455 nm. Total protein concentration of each sample was determined using 10 μl of extract and 200 μl of BioRad Bradford reagent or 20 μl of extract and 980 μl of BioRad Bradford reagent (Bradford, M. M. Anal. Biochem. 72:248-254 (1976)). GUS activity was expressed as nmoles of 4-MU per minute per mg of protein.

[2] = tested on: β-glucuronidase (GUS) reporter; experiment: Relative promoter activity rank from comparative GUS reporter studies (histochemical, fluorometric and/or Real Time PCR); parameters: key: a ‘1’ corresponds to the promoter with lowest activity; a ‘7’ corresponds to the promoter with highest activity; conditions: relative to other promoters
Description: The activity of GPM is about the same as TEF, while the activity of GPD, FBA, FBAIN, FBAINm, GPDIN, GPAT, YAT1 and EXP1 are all greater than TEF (activity is quantified in a relative manner in the column titled “Activity Rank”, wherein a ‘1’ corresponds to the promoter with lowest activity, while a ‘7’ corresponds to the promoter with highest activity). […] GUS activity in each expressed construct was measured by histochemical and/or fluorometric assays (Jefferson, R. A. Plant Mol. Biol. Reporter 5:387-405 (1987)) and/or by use of Real Time PCR.

[3] = tested on: β-glucuronidase (GUS) reporter; experiment: Comparative analysis of promoters by histochemical analysis of GUS expression
Description: Comparative studies investigating the promoter activities of the TEF, GPD, GPDIN, GPM, GPAT, FBA, FBAIN and YAT1 promoters were performed, by synthesizing constructs comprising each promoter and the E. coli gene encoding β-glucuronidase (GUS) as a reporter gene (Jefferson, R. A. Nature. 14(342):837-838 (1989)). Then, GUS activity was measured by histochemical and fluorometric assays (Jefferson, R. A. Plant Mol. Biol. Reporter 5:387-405 (1987)) and/or by using Real Time PCR for mRNA quantitation.
Yarrowia lipolytica ATCC #76982 strains containing plasmids pY5-30, pYZGDG, pYZGMG, pDMW212 and pDMW214 were grown from single colonies in 3 mL MM at 30° C. to an OD600˜1.0. Then, 100 μl of cells were collected by centrifugation, resuspended in 100 μl of histochemical staining buffer, and incubated at 30° C. Staining buffer was prepared by dissolving 5 mg of 5-bromo-4-chloro-3-indolyl glucuronide (X-Gluc) in 50 μl dimethyl formamide, followed by the addition of 5 mL 50 mM NaPO4, pH 7.0.
In a separate experiment, Y. lipolytica Y2034 strains containing plasmids pY5-30, pYGPAT-GUS, pYAT-GUS and pDMW214 were grown from single colonies in 5 mL SD media at 30° C. for 24 hrs to an OD600˜8.0. Then, 1 mL of cells were collected by centrifugation. The remaining cultures were centrifuged and washed 2× with HGM, resuspended in 5 mL each of HGM and allowed to grow at 30° C. further. After 24 and 120 hrs, ˜0.25 mL of each culture were centrifuged to collect the cells. Cell samples were resuspended individually in 100 μl of histochemical staining buffer (supra). Zymolase 20T (5 μl of 1 mg/mL; ICN Biomedicals, Costa Mesa, Calif.) was added to each, and the mixture incubated at 30° C. […]

[4] = ATCC #76982 strains, MM, FIG. 5B

Molecule	GUS activity ([1]; strain Y2034, 24 hr, HGM)	GUS activity ([1]; strain Y2034, 48 hr, SD)	GUS activity ([1]; strain Y2034, 120 hr HGM)	increase of promoter activity ([1]; switched from SD medium into HGM and grown for 24 hrs) [fold]	Activity “Rank” [2]	promoter activity by histochemical staining [3, 4]	reduction of promoter activity ([1]; switched from SD medium into HGM for 24 hrs) [%]	promoter activity by histochemical staining ([3]; strain Y2034, 24 hr in SD medium, FIG. 5C)
B1	0.942 nmoles of 4-MU per minute per mg of protein	0.401 nmoles of 4-MU per minute per mg of protein	0.466 nmoles of 4-MU per minute per mg of protein	2.3	1	active		
B2	2.969 nmoles of 4-MU per minute per mg of protein	5.252 nmoles of 4-MU per minute per mg of protein	3.050 nmoles of 4-MU per minute per mg of protein		5		40	active; also recorded: much stronger than the TEF promoter
B3					1	active		
